In the supplement of paper PMC12042874:
± gives the uncertainty stated by the source.

Assay: amyloid nucleation score (Sup35N fusion, yeast selection) (log enrichment); library NNK2; higher = more nucleation; inactive = no reads after selection
Method in brief: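 Nucleation score: DiMSum log enrichment of output over input reads, centred on the mode score of non-aggregating sequences. Only sequences with at least 100 input reads were kept. Reads came from Illumina sequencing of plasmid inserts before and after 7 days of growth at 30°C without adenine and uracil, in psi-negative yeast expressing Sup35N fused to peptides of 20 random codons after 24 hours of induction with 100 μM copper sulfate.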

Row | Substance | amyloid nucleation score
1 | SWLYIQFFNLVLKTIVGLGV | 0.026 ± 1.1
2 | SWPPKAQLMAVARCSAREAD | -0.337 ± 1.1
3 | SWQDSLYRAQCFLCSWSKTV | -0.575 ± 0.34
4 | SWWYSKELKSRSAILATMMK | -0.151 ± 0.28
5 | SYADRVILLVSCVVPWAPLR | 3.31 ± 0.15
6 | SYCSL | 0.548 ± 0.38
7 | SYFLGFVRYAVILSGMLLST | -0.281 ± 0.56
8 | SYGLLKYGI | -0.891 ± 0.35
9 | SYKMGEFTTFSLSRICK | 1.12 ± 0.27
10 | SYRELIYRDWLYRHVTL | 1.1 ± 0.11
11 | SYSMLIMFFFVIKYRSDFQL | inactive
12 | SYSPSVQ | -0.043 ± 0.55
13 | SYTSAYSRYIWRHQIIMGKK | -1.11 ± 0.42
14 | SYVVGRFNLSRCHLSCGLVS | inactive
15 | SYWKTSKCMTKLLGCNM | -0.243 ± 0.45
16 | SYYSNSLVGDFPVPISNSVM | -0.249 ± 1.1
17 | TAASISIDRTKSMPLSDRMY | inactive
18 | TAFVSHL | -0.288 ± 1.1
19 | TAGSTSSEADISLF | 4.02 ± 0.13
20 | TAHHITSVWYVVLVRLRFRQ | 1.76 ± 0.35
21 | TAKHDYFLSEESRRLYSSKY | 2.31 ± 0.063
22 | TANLKDSGQSYFKTRSVWTF | inactive
23 | TAVCKISPQQWAGCHLIHRH | 5.3 ± 0.095
24 | TAVERVSTR | 4.94 ± 0.08
25 | TAYSA | 0.521 ± 0.41

Row | Substance | amyloid nucleation score
26 | TCCKLEDSYSWSALKLTSLA | 1.27 ± 0.35
27 | TCGYGLSWLSGSPSMIMWMW | 0.009 ± 0.63
28 | TCLMDGSTCTRFGGPLEPMC | 0.028 ± 0.79
29 | TCLRSIVVVFLALGLDSFFW | -0.177 ± 0.3
30 | TCSSPTMKSYMNHCLHVDSF | 0.516 ± 0.47
31 | TCVVIQGIRGWGWMSVSFMP | -0.829 ± 0.63
32 | TDANESDR | 0.905 ± 0.36
33 | TDDMCYSEMYIRCVRLFEIV | 2.34 ± 0.11
34 | TDNHFVTRCTYVAFQLTYKV | -0.375 ± 1.1
35 | TDSRFLWGSKRNHCVRWCML | -0.242 ± 1.1
36 | TDVFCLDKSVQTRILTEVAT | -0.439 ± 0.41
37 | TDYVRHKRRNYCLL | 1.12 ± 0.43
38 | TEDVDL | 1.5 ± 0.2
39 | TERLICMRTSMPSFIYVFWD | -0.847 ± 0.54
40 | TEVGCYFYTWRICIYNDTRA | 2.28 ± 0.11
41 | TFCVNFARRVSLRSVLATIG | 0.034 ± 0.43
42 | TFDLQFELFMGDRTLSLL | -0.038 ± 0.29
43 | TFFLITDTSVMEEM | 0.072 ± 0.79
44 | TFGCEPVGPVA | 0.409 ± 0.8
45 | TFGLA | 1.06 ± 0.4
46 | TFGTQELELTD | inactive
47 | TFKVVSKDNI | -0.317 ± 0.41
48 | TFLWLLLY | 6.754 ± 0.034
49 | TFMTAMVVWSVSLGYPLLRR | 1.24 ± 0.23
50 | TFNVYTVSLDVCDYRGGHGL | 6.602 ± 0.049

Row | Substance | amyloid nucleation score
51 | TFNYHVTYFLGHFFSTYGRF | 3.49 ± 0.064
52 | TFRDYQYMYFRSRNII | 0.034 ± 1.1
53 | TFRPFQVTSHVSLRDMMGIS | 0.132 ± 0.3
54 | TFSCCACWGCFTRNV | 10.55 ± 0.047
55 | TFSLAVVYRFDDAFTLRVGD | 6.135 ± 0.05
56 | TFSWMTPNWRSHYMLDCDPG | -0.502 ± 0.79
57 | TFWTANISSADTSSFFY | 0.272 ± 0.34
58 | TGAVKLTSAAIINCTYHARM | inactive
59 | TGAWLALFLGRHAKWLALFM | 0.817 ± 0.26
60 | TGCLLWCLLSMEGRESFQDD | -0.504 ± 0.78
61 | TGCTFCKSMCLYGETSRKDN | 0.132 ± 0.36
62 | TGDCRT | 0.233 ± 0.2
63 | TGDSVGLGLLGSWRNEKVCD | 0.088 ± 0.3
64 | TGGTVMRVR | 0.297 ± 0.29
65 | TGIDHYFWLFFSYLGTLWSK | inactive
66 | TGKLCSSIKWWGT | 1.06 ± 0.39
67 | TGLVFYSSRFYVTVSMVLKE | inactive
68 | TGLYFLNSWIIMLRL | 4.434 ± 0.033
69 | TGQSHFSWQYLRTAAVYSRR | 0.569 ± 0.27
70 | TGRWCVVGHRKSS | -0.056 ± 0.34
71 | TGYFTARNSAEVKRHVNLKR | 0.169 ± 0.8
72 | TGYHNLMGVLGMVAVKHELG | -0.09 ± 0.25
73 | THLLIIDIVKYRKHIL | 0.255 ± 1.1
74 | THYTDIIFFQEGLY | inactive
75 | TIALPNFVWPKSSRKVYFS | -0.748 ± 0.32

Row | Substance | amyloid nucleation score
76 | TIGHCTEWAINMSYVFNRGY | 3.74 ± 0.053
77 | TIGPNKMRVEAGLEFQKLGK | -1.23 ± 0.76
78 | TIHSSPTVGLGNIWFVTNSH | 6.87 ± 0.052
79 | TIKLYRNMWEQLVQTEPSRT | 0.045 ± 0.79
80 | TINMNIYFIVRVDPSFDNVV | 6.88 ± 0.064
81 | TINTAMWTWSITETLPYCTW | 4.03 ± 0.06
82 | TISIFGM | -0.325 ± 0.33
83 | TISWFLETYVRSLFPRVGRG | -0.035 ± 0.33
84 | TISYKELLFANRFRELQPAD | 0.299 ± 0.49
85 | TITCLFKVRRCVYV | -0.325 ± 0.55
86 | TITPKSSICNPLRDNSYSVV | 0.136 ± 0.65
87 | TIVLGSPANHHTLKCKERGK | 0.197 ± 0.56
88 | TIYWECYMDILARSGAMWVW | -1.34 ± 0.49
89 | TKNACMPRGQGRMAPLRCCL | 0.857 ± 0.51
90 | TLDGMQMSWFRNGV | 3.93 ± 0.13
91 | TLDYGIFTVVNSTLWLYRSV | inactive
92 | TLFRKL | -0.543 ± 0.44
93 | TLGTIPIWTEIRPEYNSPLM | 0.371 ± 0.51
94 | TLIIWLTSICVVSGFVLSGE | 0.137 ± 0.25
95 | TLKYSVVNTLMTSMHDF | 3.56 ± 0.082
96 | TLLDKLK | inactive
97 | TLLSTEMHDYKLLARQRCHP | 1.24 ± 0.38
98 | TLLVKSKDYRNANSG | 0.185 ± 0.5
99 | TLNRTW | 0.166 ± 0.16
100 | TLNYSVEQPYAVIILGCKLA | 3.56 ± 0.083

Row | Substance | amyloid nucleation score
101 | TLRVS | -0.207 ± 0.36
102 | TLSSYLVALNQRGAGSLWYV | 0.825 ± 0.8
103 | TLVLFGTLISMLQL | 6.24 ± 0.073
104 | TLWVDRVREMC | -0.809 ± 0.36
105 | TLYQCEEDMSGYDNVNDLAY | -0.331 ± 0.27
106 | TMDNISSNSFDACSICSYWY | 9.385 ± 0.081
107 | TMDYRTND | 0.443 ± 0.23
108 | TMGGSGDGRY | inactive
109 | TMGYNFRCYVPLMNMLVRGV | -0.614 ± 0.54
110 | TMILKWESRCERGPGEVRLV | 6.204 ± 0.052
111 | TMRHQNASWLGVYINSSRKY | 3.72 ± 0.078
112 | TMYYRNRGLVSEPKNYNGNE | -0.246 ± 0.61
113 | TNCSYMMYAAKVSQKYPPFP | -0.567 ± 1.1
114 | TNIYLGMIVRVHLLFLMELA | -0.891 ± 1.1
115 | TNLFVSLPQPSVVKSSGSLQ | 0.212 ± 0.31
116 | TNRNKRWRYLTLFV | 0.545 ± 0.37
117 | TNSGMWGKLSACFYFVMQYL | -0.936 ± 0.27
118 | TNSRRCSYSLTPPSGTNRCQ | -0.053 ± 0.54
119 | TNSTPPVKLYWIMKLLDRFR | inactive
120 | TNSYANMSGTAGNYRSYNIA | -0.522 ± 0.63
121 | TNTCFFSNGGRTSKWHPVLV | 0.135 ± 0.56
122 | TPDAGMWNYECYIVTVW | -0.615 ± 0.49
123 | TPLYFRYVTIHYRGHVKVDV | 0.688 ± 0.81
124 | TPVQDNYSYFIFKPIDESIA | 2.19 ± 0.12
125 | TQPPNCQVYKRDDTCYWCGS | -0.509 ± 0.33

Row | Substance | amyloid nucleation score
126 | TRCGMEAYMSLDMGLYERPM | -0.762 ± 0.41
127 | TRGPR | 0.76 ± 0.46
128 | TRHSGKLLFNILMFRVMSCR | -0.36 ± 0.74
129 | TRLPEMGLMDLITRSCYNRD | -1.35 ± 0.75
130 | TRNNLSVERQKVRAMSCEKC | -0.038 ± 1.1
131 | TRTLRDGVHVGEPLAVYWCC | 9.477 ± 0.028
132 | TRTNEVSGNAESKNCRCYIG | 0.404 ± 0.29
133 | TRVDDLIR | -0.191 ± 0.32
134 | TRVLYPACVCHGRSISFGVE | 0.134 ± 0.44
135 | TSDYYTSNVQDSALRHFFSP | -0.081 ± 0.34
136 | TSGLILL | -0.301 ± 0.37
137 | TSGLMMSVCKFDLWQNVND | 3.81 ± 0.09
138 | TSGWNAERMFEHINGQFVFL | -0.195 ± 0.49
139 | TSLFVLVVGLGLCK | 2.91 ± 0.19
140 | TSLGGWVLERRCLPDAADMR | 1.2 ± 0.31
141 | TSRLNMVTSHVLKWCDNRSR | -0.516 ± 0.5
142 | TSRPMALQGYSGNSDDVTYV | 0.445 ± 0.65
143 | TSTIYGLTPRFGNMAHSAVV | 0.227 ± 0.65
144 | TSVFFQGIALP | 8.228 ± 0.029
145 | TSVIIIGYCI | 5.997 ± 0.034
146 | TSVNSILRYFRSRAMLKQGS | 1.11 ± 0.45
147 | TSYIYLMISASPQFLS | 4.04 ± 0.11
148 | TSYSTPRMGPLTPRLSSG | 0.388 ± 0.25
149 | TTHCRLYMYVWWMYVVIFFD | 2.11 ± 0.16
150 | TTKPSAILWGSTSKRPRLPR | 1.23 ± 0.34

Row | Substance | amyloid nucleation score
151 | TTLMWVWFIGFWP | 6.139 ± 0.04
152 | TTLVSSGYKYFCDVFTGVNA | -1.45 ± 0.63
153 | TTPGTDSLMAEII | 1.01 ± 0.49
154 | TTRIS | inactive
155 | TTSKISSSKSLEARHTSHLP | 0.985 ± 0.27
156 | TTTAERSVRPVSCDGFIACG | 3.56 ± 0.054
157 | TTVDSNIRAYIFKVARYHYK | -0.488 ± 1
158 | TVAGYCVPSSSCRTGTFTVC | -0.567 ± 0.33
159 | TVFLIDTYTYDTVFNTSRCR | 3.76 ± 0.041
160 | TVGHDQASYMGFGSFYTSVF | -0.538 ± 0.76
161 | TVGNF | 1.25 ± 0.47
162 | TVHFLHILIIFRSWSEGMPV | -0.345 ± 0.74
163 | TVIFVCHFTKVDCVSNTQSY | 3.42 ± 0.1
164 | TVIRNLVICSFEYCRDMITR | 8.195 ± 0.075
165 | TVLCTRRLAWRYRLHFFFQ | 3.16 ± 0.073
166 | TVLLMIMMYFIANSFYVACG | 5.89 ± 0.066
167 | TVMTFEYSEHVFRDMDT | -0.501 ± 1
168 | TVNLVFSTRG | 4.64 ± 0.059
169 | TVQDMFIFIFYVYNSFGRYM | 3.35 ± 0.052
170 | TVRMIMLANLIQSYWHTIVS | -0.153 ± 0.65
